Assay [1] deals with B16F10 melanoma cells. Nature of the assay: B16F10 melanoma growth in mice treated with rIL-9 (i.p.). Format: in vivo. As to the method: (§1) Melanoma cell lines (B16F10 cells or B16F10-ova cells), T cell lymphoma (EL-4 or ovalbumin expressing EL-4 (EG-7)) and Lewis lung carcinoma (LLC1) were grown in RPMI1640 supplemented with 10% FBS, and penicillin/streptomycin. B16F10 cells (2-4×10^5 cells/150 μl/mouse), EL-4 (2×10^5 cells/150 μA/mouse), or LLC1 (5×10^5 cells/150 μA/mouse) were injected subcutaneously into the right or left flank of the mice and tumor development was monitored over time. Tumor volume was calculated by following formula: (major circumference×minor circumference^2)/2. Mice were sacrificed when there was external necrosis or/and tumor volume reached no greater than 2 cm in any direction.
(§2) rIL-9 (5 μg/100 μA PBS/mouse from Cell Sciences, USA) was injected (ip) from day 0 and every third day till the termination of the experiment. In lewis lung carcinoma (LLC-1) model, rIL-9 (50 ng/100 μl PBS/mouse from RnD systems) was used on every alternate day till the termination of experiment. Unlike Cell Science rIL-9 (source: E. coli), rIL-9 from RnD systems is glycosylated and therefore has stronger biological activity compared to Cell Sciences. Thus, 100 times less rIL-9 was used in LLC-1 tumor model experiments compared to melanoma model experiments.

For assay [2], the system named is Lewis lung carcinoma (LLC-1) cells. Nature of the assay: Lewis lung carcinoma (LLC-1) tumor growth in mice treated with rIL-9. Format: in vivo. As to the method:
as §1, §2

For assay [3], the system named is EL-4 T lymphoma cells. Nature of the assay: EL-4 tumor growth in mice treated with IL-9. Format: in vivo. Conditions: IL-9 treatment (data not included). As for the experimental part:
as §1

Assay [4] has as its system B16F10 cells. Nature of the assay: Growth curve assay of tumor cells with rIL-9 (crystal violet). Format: cell-based, mouse. The settings on record: melanoma cells and lung carcinoma cells, rIL-9 at different concentrations (FIG. 10D). As for the experimental part: Effect of rIL-9 on growth of B16F10 cells were studied by growth curve assay. B16F10 cells were seeded with rIL-9. After each incubation period cells were fixed (10% acetic acid in 10% ethanol). Cells were subsequently stained with 0.4% crystal violet in 10% ethanol for 30 min. Subsequently, 200 μl 10% acetic acid was added. After 30 min, 100 μL solution was transferred into 96-well plate and OD was measured at 595-wavelength.

B1: rIL-9: recombinant interleukin-9 cytokine from Cell Sciences, injected ip 5 μg/mouse in melanoma model (protein, UniProt P15247 19-144, looked up)
Interleukin-9: QRCSTTWGIRDTNYLIENLKDDPPSKCSCSGNVTSCLCLSVPTDDCTTPCYREGLLQLTNATQKSRLLPVFHRVKRIVEVLKNITCPSFSCEKPCNQTMAGNTLSFLKSLLGTFQKTEMQRQKSRP
Regarding B1, the melanoma growth entry in assay [1] (Rag1-/- C57BL/6 mice (lack T and B cells), rIL-9 vs PBS (FIG. 5D)) is recorded as “significantly slowed melanoma growth”; in assay [1] (normal WT mice, B16F10 s.c., rIL-9 i.p. vs PBS (FIG. 5B)), “impaired melanoma growth”. The tumor development result in assay [1] (mast cell deficient mice (Kit W-sh), B16 melanoma, vs control (FIG. 5E)) is “no significant difference in tumor development”; in assay [2] (mast cell deficient mice (Kit W-sh), LLC-1, vs control (FIG. 5F)), “no significant difference in tumor development”. The survival of mice result in assay [1] (melanoma bearing mice, rIL-9 (data not shown)) was “increased the survival of mice”. In addition, the “melanoma growth in vaccinated mice” value in assay [1] (mice vaccinated with 1 million irradiated melanoma cells, melanoma cells injected 7 days later, rIL-9 vs PBS) is listed as “significantly slower melanoma growth”. In addition, in assay [2] (normal WT mice, rIL-9 vs control group (FIG. 5C)), the LLC-1 tumor development entry is on record as “significantly suppressed”. For the same molecule, the EL-4 tumor growth result in assay [3] is recorded as “neither inhibition nor acceleration”. Also, the “tumor cell growth in vitro” value in assay [4] is “does not affect the growth of these cells in vitro”.
